± gives the uncertainty stated by the source.

The nature of this series: amyloid nucleation score (Sup35N fusion, yeast selection) (log enrichment); library NNK2; higher = more nucleation; inactive = no reads after selection. The essentials:
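Using DiMSum, nucleation scores were taken as the log enrichment of output over input reads, centred on the mode score of non-aggregating sequences. The input and output reads came from Illumina sequencing of plasmid inserts, with sequences under 100 input reads excluded. The yeast were psi-negative, expressed Sup35N fused to peptides of 20 random codons, were induced with 100 μM copper sulfate for 24 hours, and were grown 7 days at 30°C on medium lacking adenine and uracil.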
For the substance DAAHSFYLSSGNESFVLELT, the amyloid nucleation score was -0.327 ± 0.63.
As for MDCECG, the figure is 1.03 ± 0.3; as for IQLIRHCSSLNRTYQVSVSR, 0.364 ± 0.3; as for DTGRFVMLVVGR, 0.304 ± 0.54.
On to YSSSKNTVVMSAKSMVRLRT, for which the amyloid nucleation score came out at 0.52 ± 0.56.
NSINRMVVQLVG had an amyloid nucleation score of 3.9 ± 0.087.
CCYQVSYCIVSVIDSVEYGP displayed an amyloid nucleation score of 6.991 ± 0.033.
In the case of RRMVMVSANVSLIEQHYCRN, the amyloid nucleation score was 5.552 ± 0.042.
MFERINALFNLQ: the amyloid nucleation score worked out at 3.46 ± 0.14.
In the case of MSSCLRL, the amyloid nucleation score was found to be 4.51 ± 0.056.
In turn, YALRLLHGSYNSNT returned an amyloid nucleation score of 3.31 ± 0.084.
Substance AKPRYN gave an amyloid nucleation score of 0.221 ± 0.42.
Consider VVSCGYARHDVGDFWLRDCR, for which the amyloid nucleation score was 0.481 ± 0.38.
The same measure for YTVYFSVGVVVE: -1.42 ± 0.49; for GIIDLHAYLFKVHEWAHPHR: 6.07 ± 0.063; for ASHMRSDSAL: “inactive”.
YHVVVMRSVYTVLTYNRVGA came in with an amyloid nucleation score of 0.334 ± 0.65.
Regarding LLFIIMRDLLYPTLEDTFLT, the amyloid nucleation score came to 0.317 ± 0.5.
Consider TYGLWRFGTRGKDEFKSPNR, for which the amyloid nucleation score was 6.16 ± 0.058.
On to NSLLNFVFSVYVKACIIPYT, for which the amyloid nucleation score result is “inactive”.
As for YEGPWQLIVVSTISVFTNSC, the amyloid nucleation score was -0.156 ± 0.38.
For EFNCYGWKRRKRRCWGGKCR, the amyloid nucleation score stood at 0.726 ± 0.41.
VFARWFYAADGYIARLHVHT: the amyloid nucleation score amounted to 0.133 ± 0.5.
The same measure for VINLRLLLIVLDGDIDYWCV: “inactive”; for SSIRKDNRGCAHGGLVVER: 0.698 ± 0.44; for VPGSMLLCIVQALKHANMAG: 0.417 ± 0.24.
QYWQYWSWIGCVCLLCGWRF gave an amyloid nucleation score of 0.91 ± 0.26.
Turning to EYIYTIGYGL, the amyloid nucleation score entry was “inactive”.
As for CSFHVGNLTWWANVEARVVV, the figure is 0.176 ± 0.29; as for LTVRDLVPPPAMANRFLTVI, -0.016 ± 0.44.
On to FRGITASYEPIGGARMSARE, for which the amyloid nucleation score is -0.001 ± 0.62.
In turn, FGNDPSGCVNQAYYHRCFLD gave an amyloid nucleation score of -0.959 ± 0.78.
The substance MMVAGLFLGAFFLISTKGVK yielded an amyloid nucleation score of 4.43 ± 0.064.
Regarding MWIYNY, the amyloid nucleation score is 2.78 ± 0.087.
The same measure for RHLISSLRELHTTLNLHRPE: 0.101 ± 0.76; for KVLRLIRY: 1.25 ± 0.48.
FYCWTTSDMFVRTSSIESP showed an amyloid nucleation score of 1.09 ± 0.59.
PTRDKVATEGHGNGLIYNRF: the amyloid nucleation score is 0.306 ± 0.65.
In turn, RTAINESCQDEMG returned an amyloid nucleation score of 5.44 ± 0.073.
The same measure for MSSSVHLGIFITQCVKTRQL: 2.25 ± 0.22.
The substance GNTGSGSDSKLYLAMP displayed an amyloid nucleation score of -0.076 ± 0.79.
Turning to CKLPDVTIMDYLLPFM, the amyloid nucleation score was -0.333 ± 0.41.
In the case of QTGCSITFLKFGRSAVSTVK, the amyloid nucleation score turned out to be 0.378 ± 0.27.
LFVPGLNR came in with an amyloid nucleation score of 0.047 ± 0.31.
The substance FAYLPSTVVGVSHSTLGPLI registered an amyloid nucleation score of 0.221 ± 0.43.
WDSIVDVSSKIAFFRMNDSS displayed an amyloid nucleation score of -1.41 ± 0.62.
The same measure for RPNSSIVLLYPFKMRPFES: “inactive”; for YPRALIHVWKKSLVHTSRCR: 7.14 ± 0.079; for VSWTPWESIFSGVMV: -0.568 ± 0.61.
The same measure for EFMYGKTARGWFLALTARIF: “inactive”; for DVSSPVPGRGQCCVDGCWEF: 6.153 ± 0.059.
LYENWPCFT: the amyloid nucleation score is -0.199 ± 0.53.
Substance MKSLLLLCCYSELAYLCGML gave an amyloid nucleation score of -1.34 ± 0.4.
As for CYRNNWTMWVVSQRYHRNGK, the figure is -0.289 ± 0.22.
In turn, RLELVTVVSVSMHDLRHRRR gave an amyloid nucleation score of 4.75 ± 0.071.
NNSYVFFFI displayed an amyloid nucleation score of 7.013 ± 0.064.
Substance DNCIDSCCYPLVSRVLEL showed an amyloid nucleation score of 0.354 ± 0.64.
FYVLFGSF gave an amyloid nucleation score of -2.07 ± 0.76.
The same measure for LLSDLFCIFVLRKSRSGGWS: 1.04 ± 0.34.
Regarding FAWNMLS, the amyloid nucleation score came out at 0.285 ± 0.74.
As for SKVLKRACYGAAGPFRIVHV, the figure is 3.29 ± 0.082.
The substance NLKMDLLRFLHMSLRYISTR returned an amyloid nucleation score of -0.36 ± 0.64.
NCYGVVYSLCNMEVLSMWHE came in with an amyloid nucleation score of 7.723 ± 0.036.
GQAHRFGTHLRISAGVVPPV gave an amyloid nucleation score of 0.01 ± 0.32.
Consider MDWIPLMPTYGIWLPC, for which the amyloid nucleation score was found to be 0.045 ± 0.41.
As to SVKHGMLCYTLLDNMRCTVE, the amyloid nucleation score is -0.087 ± 0.26.
FMSGRESAVCLFKNFSVLRS came in with an amyloid nucleation score of 2.76 ± 0.084.
As for IIKLPWFWDAFKAARQ, the amyloid nucleation score was -0.069 ± 0.3.
As for QMISLYAKQGVFPFGLSCSC, the amyloid nucleation score is 2.02 ± 0.11.
The same measure for LLAIVVILKSTAPGKRY: “inactive”.
The same measure for TLFLSNFRFRCRFPDHALIS: -1.3 ± 0.48; for KLRGIPYRF: “inactive”; for YYQVVTNNLSI: 0.129 ± 0.76.
MEPYRVKAMYPPRVIKVWFT came in with an amyloid nucleation score of -0.448 ± 0.76.
In turn, LACLVIFMTVSDMDVLSGLF registered an amyloid nucleation score of -0.39 ± 0.21.
Regarding WSNGR, the amyloid nucleation score amounted to 0.329 ± 0.44.
GVPCRWTVPNANGSSVWSLR registered an amyloid nucleation score of 0.776 ± 0.3.
Substance IAVRMALGLENNKFFLIVHK came in with an amyloid nucleation score of -1.44 ± 0.55.
On to KDLEFSISLMKVPNIWWHYR, for which the amyloid nucleation score amounted to 1.04 ± 0.17.
Take GNKLYFCSFAWLEVFKFKDL: the amyloid nucleation score amounted to 1.86 ± 0.082.
The same measure for ISKLSARSLSRVVNLYKGVA: 0.85 ± 0.17.
Turning to DGTNFDR, the amyloid nucleation score is -0.92 ± 0.37.
The same measure for FPYIFIWFYGSVGLWRRETL: 0.127 ± 0.79; for VHVYVGQKWSGGVLSLACYK: 1.09 ± 0.35.
With YVHMMSMKPHQLINCLRLFY, the amyloid nucleation score was -1.2 ± 0.74.
Substance RLTVTGVALVFKGFAAEYGL came in with an amyloid nucleation score of 5.81 ± 0.066.
In the case of SLYCGGQMLD, the amyloid nucleation score result is “inactive”.
As for RLRKFESLLICDRISIIVRY, the figure is 0.621 ± 0.56.
The substance ELSLTCNGDQLIGMKGGADK displayed an amyloid nucleation score of 0.008 ± 0.38.
PSFFCKWKSLYPTVNVCVVN: the amyloid nucleation score was -0.073 ± 0.49.
Substance IAAYLLNSQYDSCNVDEKRH had an amyloid nucleation score of -0.448 ± 0.39.
YTTQLGWWFFRGRTTLNKWV came in with an amyloid nucleation score of 1.06 ± 0.61.
As to LSWVRAIS, the amyloid nucleation score worked out at 0.2 ± 0.38.
On to LAQMQR, for which the amyloid nucleation score is -0.169 ± 0.8.
On to HLMRLHY, for which the amyloid nucleation score was -1.78 ± 1.1.
The same measure for TRSSNNPPGMVDT: -0.959 ± 0.38; for RSEDGRGGSKGQIIRVVMNW: 4.76 ± 0.062; for NEHGGLVNYGVCISGATYLA: 4.21 ± 0.097.
With CMQTSDEPLRHGP, the amyloid nucleation score was -0.06 ± 0.79.
The same measure for SVLEANMHAVWTGRYEN: 0.713 ± 0.22; for LGGVSSHSELMPRVKVNWLT: “inactive”.
In turn, LQYINRGISRHVVKYSRSLS came in with an amyloid nucleation score of -0.733 ± 0.41.
FMSMLSCQAKTNLPMYATHM registered an amyloid nucleation score of -0.091 ± 0.79.

(Values after the supplement of paper PMC12042874.)
